Data as given in the supplement of paper PMC7125110.
± gives the standard error. Variants at the floor of the assay were thinned out.

B1: glmS ribozyme (parent)
chain: AUAAAAGCGCCAGAACUACAGAAAUGUAGUUGACGAGGAGGAGGUUUAUCGAAUUUUCGGCGGAUGCCUCCAAA

Key:
Details in all cases: with glucosamine-6-phosphate
[1] = variants of: B1; experiment: self-cleavage kobs at 40 uM GlcN6P; higher = faster cleavage; RNA array
In short: (§1)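 E. coli RNA polymerase transcribed barcoded ribozyme variants in situ on sequenced MiSeq chips, which were tracked via a hybridised Cy3 probe at 37 °C. Tiles were imaged over ~14 h after glucosamine-6-phosphate (40 μM to 10 mM) in HEPES/KCl/Mg(OAc)2 buffer was flowed in. Normalised per-tile medians were fit to one- or two-exponential decays for kobs, and kcat and KM came from weighted Michaelis–Menten fits.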

[2] = variants of: B1; experiment: self-cleavage kobs at 10000 uM GlcN6P; higher = faster cleavage; RNA array
In short: as §1

[3] = variants of: B1; experiment: self-cleavage kobs at 160 uM GlcN6P; higher = faster cleavage; RNA array
In short: as §1

[4] = variants of: B1; experiment: self-cleavage kobs at 640 uM GlcN6P; higher = faster cleavage; RNA array
In short: as §1

[5] = variants of: B1; experiment: self-cleavage kobs at 2500 uM GlcN6P; higher = faster cleavage; RNA array
In short: as §1

Variant | self-cleavage kobs at 40 uM GlcN6P [1] [s⁻¹] | self-cleavage kobs at 10000 uM GlcN6P [2] [s⁻¹] | self-cleavage kobs at 160 uM GlcN6P [3] [s⁻¹] | self-cleavage kobs at 640 uM GlcN6P [4] [s⁻¹] | self-cleavage kobs at 2500 uM GlcN6P [5] [s⁻¹]
G29U A36G A48C C71G | < 1e-05 |  |  |  | 
U30A G35A G51A G60U | < 1e-05 | < 1e-05 |  |  | 
U30C U69G | 3.65e-05 ± 1.2e-05 | 2.39e-05 ± 1.1e-05 | 7.31e-05 ± 1.5e-05 | 0.000119 ± 2.8e-05 | 5.46e-05 ± 1.1e-05
U31C G35A | < 1e-05 | < 1e-05 | < 1e-05 | < 1e-05 | < 1e-05
G29U G35U A36G | < 1e-05 |  |  |  | 
G32A U47C A48G C71U | < 1e-05 |  |  |  | 
U30A A39U G63U | < 1e-05 |  |  | < 1e-05 | < 1e-05
U31G C61G U65C | < 1e-05 |  |  |  | 
U31C A36G A39G U47C | < 1e-05 | < 1e-05 |  |  | 
U30A A39U G51A A64G | < 1e-05 | < 1e-05 |  |  | 
G29A A39U U69A | < 1e-05 |  |  |  | 
G32A G41C | < 1e-05 | 3.31e-05 ± 8.8e-06 |  | < 1e-05 | 
C16U G38A | < 1e-05 |  | < 1e-05 | < 1e-05 | < 1e-05
U31G G66A | 0.000146 ± 2.4e-05 | 0.00839 ± 0.0014 |  | 0.0011 ± 0.00039 | 0.00151 ± 0.00042
C16U U31C G35A G41A G62U | < 1e-05 |  |  | < 1e-05 | 
U30A U56C A64G | < 1e-05 | 2.96e-05 ± 1.4e-05 |  |  | 
G32C C34U A64G C68G | < 1e-05 | < 1e-05 |  |  | 
G29C U31A U46A A53C C71U | < 1e-05 |  |  |  | 
C16U G41A G59U | < 1e-05 | < 1e-05 |  | < 1e-05 | < 1e-05
G29U A36C G38A G40A | < 1e-05 | < 1e-05 |  |  | < 1e-05
C16U A33G | < 1e-05 | < 1e-05 |  |  | 
U30G G62U | < 1e-05 | < 1e-05 |  | < 1e-05 | 
G29C U31C G37A C67A | < 1e-05 | < 1e-05 |  |  | < 1e-05
U30G A48G C71U | < 1e-05 |  |  | < 1e-05 | 

Variant | self-cleavage kobs at 40 uM GlcN6P [1] [s⁻¹] | self-cleavage kobs at 10000 uM GlcN6P [2] [s⁻¹] | self-cleavage kobs at 160 uM GlcN6P [3] [s⁻¹] | self-cleavage kobs at 640 uM GlcN6P [4] [s⁻¹] | self-cleavage kobs at 2500 uM GlcN6P [5] [s⁻¹]
C16U U31A | 0.000621 ± 7.9e-05 | 0.0168 ± 0.0026 | 0.000862 ± 0.00014 | 0.00468 ± 0.00061 | 0.00634 ± 0.0017
G29U G40A U45A | 5.2e-05 ± 1.6e-05 | 0.000439 ± 0.00011 |  | 0.00011 ± 2.8e-05 | 0.000444 ± 8.6e-05
C16U U30A U31G A53U G59U | < 1e-05 |  |  |  | < 1e-05
U30G G44U | < 1e-05 | 4.23e-05 ± 1.3e-05 | < 1e-05 |  | 
G29U U46G C58G C67A | 4.15e-05 ± 1.9e-05 | 5.63e-05 ± 1.4e-05 |  |  | 
U31G G35C | < 1e-05 |  | < 1e-05 | < 1e-05 | < 1e-05
G32C G35U | < 1e-05 | < 1e-05 | < 1e-05 | < 1e-05 | < 1e-05
U31A U49A C61U C70G | < 1e-05 |  |  |  | 
G29C U45C G62A | < 1e-05 |  |  |  | < 1e-05
C16U U31C A36G G41C | < 1e-05 | < 1e-05 |  |  | < 1e-05
G32C G41A A52C | < 1e-05 |  | < 1e-05 |  | < 1e-05
G29U C50G G60U C67A | 9.35e-05 ± 1.9e-05 | 0.000133 ± 3e-05 |  |  | 
C16U C71G | 6.56e-05 ± 7.6e-06 | 0.000726 ± 0.0001 | 0.00019 ± 2.6e-05 | 0.000313 ± 4.5e-05 | 0.000215 ± 3.4e-05
G32C A36C G37C | < 1e-05 |  |  |  | 
G29C A42U U65C | < 1e-05 | < 1e-05 |  |  | < 1e-05
U31A G37C U69G | < 1e-05 |  |  |  | 
U31A A36U | < 1e-05 | < 1e-05 | < 1e-05 | < 1e-05 | < 1e-05
G29A U56A G63C | < 1e-05 |  |  |  | 
G29C A39C A48C G60A | < 1e-05 | < 1e-05 |  |  | 
U31G G60C C68A | < 1e-05 |  |  |  | 
G29U A42U | < 1e-05 | 2.15e-05 ± 1.1e-05 |  | < 1e-05 | 
C19A A53U | 0.000466 ± 8.9e-05 | 0.0123 ± 0.0028 |  | 0.00276 ± 0.0012 | 
G26U C50G | 4.71e-05 ± 1.9e-05 | 3.96e-05 ± 1.3e-05 |  |  | 
G32A C50U | < 1e-05 |  |  | < 1e-05 | 

Variant | self-cleavage kobs at 40 uM GlcN6P [1] [s⁻¹] | self-cleavage kobs at 10000 uM GlcN6P [2] [s⁻¹] | self-cleavage kobs at 160 uM GlcN6P [3] [s⁻¹] | self-cleavage kobs at 640 uM GlcN6P [4] [s⁻¹] | self-cleavage kobs at 2500 uM GlcN6P [5] [s⁻¹]
U31G A42G | 0.00033 ± 8.8e-05 | 0.0263 ± 0.0086 |  | 0.00343 ± 0.0011 | 0.00724 ± 0.0018
G32C G43U U47C | < 1e-05 |  |  |  | 
U30G G32A G35C A42C | < 1e-05 |  |  |  | 
C16U C34A A39U A52U C70A | < 1e-05 |  |  | < 1e-05 | 
A18G C70A | 4.53e-05 ± 2.1e-05 | 0.000432 ± 0.00014 |  |  | 
U30A C68A | < 1e-05 |  |  |  | 
G32A G37A C50G C67U | 6.41e-05 ± 2.1e-05 |  |  |  | 
G29U U46G C50U G60U G66U | < 1e-05 |  |  |  | 
U31A C50G C58A | 5.39e-05 ± 1.9e-05 |  |  | 0.00134 ± 0.00032 | 0.000414 ± 0.00012
G29C G35U C58U | < 1e-05 |  |  |  | 
G29A A48U U54A | < 1e-05 | 3.57e-05 ± 1.5e-05 |  |  | 
U31G A53G | 0.000276 ± 4.7e-05 | 0.02 ± 0.0035 | 0.000661 ± 0.00018 |  | 0.00382 ± 0.00096
G29U U31C A48C | < 1e-05 | < 1e-05 |  |  | 
C16U C50U | < 1e-05 | 0.000106 ± 2e-05 |  |  | 5.3e-05 ± 1.3e-05
G32C G44C | < 1e-05 | < 1e-05 | < 1e-05 |  | < 1e-05
C16U U69C | 0.000407 ± 8.8e-05 | 0.0036 ± 0.00088 | 0.000359 ± 9e-05 | 0.000778 ± 0.00013 | 0.000683 ± 0.00014
G29U C34A C61U | < 1e-05 |  |  | < 1e-05 | 
G32C G40A | < 1e-05 | 1.99e-05 ± 7.3e-06 | < 1e-05 |  | 
C16U G43C | < 1e-05 | < 1e-05 |  |  | 
U31G G44A G51U C61U C70G | < 1e-05 |  |  |  | 
C16U G40A | 0.000204 ± 2e-05 | 0.00622 ± 0.00083 | 0.000448 ± 7e-05 | 0.000996 ± 0.00017 | 0.00398 ± 0.00098
C16U U56G | 0.000579 ± 9.9e-05 | 0.0241 ± 0.0047 | 0.000979 ± 0.0002 | 0.00302 ± 0.00067 | 0.00709 ± 0.0016
C16U U56A | 0.000484 ± 9.4e-05 | 0.0273 ± 0.0079 | 0.000861 ± 0.00013 | 0.00448 ± 0.0011 | 0.00493 ± 0.0012
U31C G51A | < 1e-05 | < 1e-05 |  | < 1e-05 | < 1e-05

Variant | self-cleavage kobs at 40 uM GlcN6P [1] [s⁻¹] | self-cleavage kobs at 10000 uM GlcN6P [2] [s⁻¹] | self-cleavage kobs at 160 uM GlcN6P [3] [s⁻¹] | self-cleavage kobs at 640 uM GlcN6P [4] [s⁻¹] | self-cleavage kobs at 2500 uM GlcN6P [5] [s⁻¹]
C19A U56G C68U | 0.000112 ± 3.6e-05 | 0.000435 ± 9.2e-05 |  |  | 0.00041 ± 7.6e-05
G32C U45C C58G G59U | < 1e-05 |  |  |  | 
G29A C34U U47G A48G C67G | 0.000265 ± 0.0001 | 7.2e-05 ± 3.2e-05 |  |  | 
G29U A42G U56C G63A | < 1e-05 | < 1e-05 |  |  | 
G32C A52C G63A | < 1e-05 |  |  |  | 
G29C C70U | 8.66e-05 ± 9.8e-06 | 0.000815 ± 0.00013 | 0.000143 ± 1.8e-05 | 0.000243 ± 2.2e-05 | 0.00103 ± 0.00018
C19U | 0.00125 ± 0.00046 |  | 0.00445 ± 0.0011 | 0.00527 ± 0.0011 | 0.0229 ± 0.0083
G29C C68A | < 1e-05 |  |  |  | 
G32C A36U | < 1e-05 |  | < 1e-05 | < 1e-05 | < 1e-05
G32C A52C | < 1e-05 |  | < 1e-05 | < 1e-05 | < 1e-05
G32C G40A A53C | < 1e-05 | < 1e-05 |  |  | < 1e-05
C16U G29C | 0.000447 ± 6.3e-05 | 0.0179 ± 0.0033 | 0.000622 ± 9.5e-05 | 0.00244 ± 0.00032 | 0.00422 ± 0.00072
U30C G43A | < 1e-05 | < 1e-05 | < 1e-05 |  | < 1e-05
G29C U65G C67U | < 1e-05 | 0.000105 ± 3e-05 |  |  | 
U30G G43A | < 1e-05 |  | < 1e-05 |  | 
U31G G44U C61U | < 1e-05 | < 1e-05 |  |  | 
U30C G32C G44U C50U | < 1e-05 | < 1e-05 |  |  | 
G29U U30G C34U | < 1e-05 | < 1e-05 |  |  | 
U31G C50G | 6.22e-05 ± 1.5e-05 | 3.31e-05 ± 1.1e-05 | 0.000172 ± 3e-05 | 0.000175 ± 4.5e-05 | 0.00013 ± 1.9e-05
U31C G66C C67G | < 1e-05 |  |  |  | 
U30A G35A | < 1e-05 | < 1e-05 | < 1e-05 | < 1e-05 | < 1e-05
U31G G59C | < 1e-05 | < 1e-05 | < 1e-05 | < 1e-05 | 
U31A U46A C61U C70U | < 1e-05 |  |  |  | 
